One block for each molecule: values may come before it.
What was measured:
[1] = molecular target: IL-2R (IL-2 receptor on the BCMA CAR T cells) (human) (UniProt P01589); assay: cell-based or functional assay
[2] = molecular target: CAR that binds human CD19 (scFv derived from anti-human CD19 antibody clone FMC69, human CD28 and CD3zeta intracellular signaling domains), on human T cells; assay: flow cytometry, dose-dependent staining of CD19 CAR T cells, y-axis %Binding; the value stands above the plot, in which only this curve rises
[3] = molecular target: CAR that binds human BCMA (scFv derived from anti-human BCMA antibody clone MSK54, human 41BB and CD3zeta intracellular signaling domains), on human T cells; assay: flow cytometry, staining of BCMA CAR T cells with varying concentrations, Alexa647-labeled anti-FLAG secondary
[4] = molecular target: CAR that binds human BCMA (scFv derived from anti-human BCMA antibody clone MSK54, human 41BB and CD3zeta intracellular signaling domains), on human T cells; assay: cell-based or functional assay
[5] = molecular target: CAR that binds human BCMA (scFv derived from anti-human BCMA antibody clone MSK54, human 41BB and CD3zeta intracellular signaling domains), on human T cells; assay: cell-based or functional assay; remark: listed apart in the source
[6] = molecular target: CAR that binds human BCMA (scFv derived from anti-human BCMA antibody clone MSK54, human 41BB and CD3zeta intracellular signaling domains), on human T cells; assay: flow cytometry, anti-CD45 (y) against AF647-tagged BCMA-CH3 (x); CAR only mouse, upper row (CAR T cells without CAR-engager; the text says little to no CD45+ cells persisted); Lung
[7] = molecular target: CAR that binds human BCMA (scFv derived from anti-human BCMA antibody clone MSK54, human 41BB and CD3zeta intracellular signaling domains), on human T cells; assay: flow cytometry, anti-CD45 (y) against AF647-tagged BCMA-CH3 (x); CAR + Treatment mouse (BCMA CAR T cells and BCMA-muIL2); Spleen
[8] = molecular target: CAR that binds human BCMA (scFv derived from anti-human BCMA antibody clone MSK54, human 41BB and CD3zeta intracellular signaling domains), on human T cells; assay: flow cytometry, anti-CD45 (y) against AF647-tagged BCMA-CH3 (x); CAR only mouse, lower row (CAR T cells without CAR-engager; the text says little to no CD45+ cells persisted); Lung
[9] = molecular target: CAR that binds human BCMA (scFv derived from anti-human BCMA antibody clone MSK54, human 41BB and CD3zeta intracellular signaling domains), on human T cells; assay: flow cytometry, anti-CD45 (y) against AF647-tagged BCMA-CH3 (x); CAR only mouse, lower row (CAR T cells without CAR-engager; the text says little to no CD45+ cells persisted); Bone Marrow Right
[10] = molecular target: CAR that binds human BCMA (scFv derived from anti-human BCMA antibody clone MSK54, human 41BB and CD3zeta intracellular signaling domains), on human T cells; assay: flow cytometry, anti-CD45 (y) against AF647-tagged BCMA-CH3 (x); CAR only mouse, upper row (CAR T cells without CAR-engager; the text says little to no CD45+ cells persisted); Kidney
[11] = molecular target: CAR that binds human BCMA (scFv derived from anti-human BCMA antibody clone MSK54, human 41BB and CD3zeta intracellular signaling domains), on human T cells; assay: flow cytometry, anti-CD45 (y) against AF647-tagged BCMA-CH3 (x); CAR only mouse, upper row (CAR T cells without CAR-engager; the text says little to no CD45+ cells persisted); Bone Marrow Left
[12] = molecular target: CAR that binds human BCMA (scFv derived from anti-human BCMA antibody clone MSK54, human 41BB and CD3zeta intracellular signaling domains), on human T cells; assay: flow cytometry, anti-CD45 (y) against AF647-tagged BCMA-CH3 (x); CAR only mouse, lower row (CAR T cells without CAR-engager; the text says little to no CD45+ cells persisted); Blood
[13] = molecular target: CAR that binds human BCMA (scFv derived from anti-human BCMA antibody clone MSK54, human 41BB and CD3zeta intracellular signaling domains), on human T cells; assay: flow cytometry, anti-CD45 (y) against AF647-tagged BCMA-CH3 (x); CAR only mouse, lower row (CAR T cells without CAR-engager; the text says little to no CD45+ cells persisted); Liver
[14] = molecular target: CAR that binds human BCMA (scFv derived from anti-human BCMA antibody clone MSK54, human 41BB and CD3zeta intracellular signaling domains), on human T cells; assay: flow cytometry, anti-CD45 (y) against AF647-tagged BCMA-CH3 (x); CAR only mouse, lower row (CAR T cells without CAR-engager; the text says little to no CD45+ cells persisted); Bone Marrow Left
[15] = molecular target: CAR that binds human BCMA (scFv derived from anti-human BCMA antibody clone MSK54, human 41BB and CD3zeta intracellular signaling domains), on human T cells; assay: flow cytometry, anti-CD45 (y) against AF647-tagged BCMA-CH3 (x); CAR + Treatment mouse (BCMA CAR T cells and BCMA-muIL2); Tumor Eye
[16] = molecular target: CAR that binds human BCMA (scFv derived from anti-human BCMA antibody clone MSK54, human 41BB and CD3zeta intracellular signaling domains), on human T cells; assay: flow cytometry, anti-CD45 (y) against AF647-tagged BCMA-CH3 (x); CAR + Treatment mouse (BCMA CAR T cells and BCMA-muIL2); Liver
[17] = molecular target: CAR that binds human BCMA (scFv derived from anti-human BCMA antibody clone MSK54, human 41BB and CD3zeta intracellular signaling domains), on human T cells; assay: flow cytometry, anti-CD45 (y) against AF647-tagged BCMA-CH3 (x); CAR only mouse, upper row (CAR T cells without CAR-engager; the text says little to no CD45+ cells persisted); Bone Marrow Right
[18] = molecular target: CAR that binds human BCMA (scFv derived from anti-human BCMA antibody clone MSK54, human 41BB and CD3zeta intracellular signaling domains), on human T cells; assay: flow cytometry, anti-CD45 (y) against AF647-tagged BCMA-CH3 (x); CAR + Treatment mouse (BCMA CAR T cells and BCMA-muIL2); Kidney
[19] = molecular target: CAR that binds human BCMA (scFv derived from anti-human BCMA antibody clone MSK54, human 41BB and CD3zeta intracellular signaling domains), on human T cells; assay: flow cytometry, anti-CD45 (y) against AF647-tagged BCMA-CH3 (x); CAR only mouse, upper row (CAR T cells without CAR-engager; the text says little to no CD45+ cells persisted); Spleen
[20] = molecular target: CAR that binds human BCMA (scFv derived from anti-human BCMA antibody clone MSK54, human 41BB and CD3zeta intracellular signaling domains), on human T cells; assay: flow cytometry, anti-CD45 (y) against AF647-tagged BCMA-CH3 (x); CAR + Treatment mouse (BCMA CAR T cells and BCMA-muIL2); Blood
[21] = molecular target: CAR that binds human BCMA (scFv derived from anti-human BCMA antibody clone MSK54, human 41BB and CD3zeta intracellular signaling domains), on human T cells; assay: flow cytometry, anti-CD45 (y) against AF647-tagged BCMA-CH3 (x); CAR only mouse, lower row (CAR T cells without CAR-engager; the text says little to no CD45+ cells persisted); Kidney
[22] = molecular target: CAR that binds human BCMA (scFv derived from anti-human BCMA antibody clone MSK54, human 41BB and CD3zeta intracellular signaling domains), on human T cells; assay: flow cytometry, anti-CD45 (y) against AF647-tagged BCMA-CH3 (x); CAR + Treatment mouse (BCMA CAR T cells and BCMA-muIL2); Lung
[23] = molecular target: CAR that binds human BCMA (scFv derived from anti-human BCMA antibody clone MSK54, human 41BB and CD3zeta intracellular signaling domains), on human T cells; assay: flow cytometry, anti-CD45 (y) against AF647-tagged BCMA-CH3 (x); CAR only mouse, upper row (CAR T cells without CAR-engager; the text says little to no CD45+ cells persisted); Liver
[24] = molecular target: CAR that binds human BCMA (scFv derived from anti-human BCMA antibody clone MSK54, human 41BB and CD3zeta intracellular signaling domains), on human T cells; assay: flow cytometry, anti-CD45 (y) against AF647-tagged BCMA-CH3 (x); CAR + Treatment mouse (BCMA CAR T cells and BCMA-muIL2); Bone Marrow Left
[25] = molecular target: CAR that binds human BCMA (scFv derived from anti-human BCMA antibody clone MSK54, human 41BB and CD3zeta intracellular signaling domains), on human T cells; assay: flow cytometry, anti-CD45 (y) against AF647-tagged BCMA-CH3 (x); CAR + Treatment mouse (BCMA CAR T cells and BCMA-muIL2); Bone Marrow Right
[26] = molecular target: CAR that binds human BCMA (scFv derived from anti-human BCMA antibody clone MSK54, human 41BB and CD3zeta intracellular signaling domains), on human T cells; assay: flow cytometry, anti-CD45 (y) against AF647-tagged BCMA-CH3 (x); CAR only mouse, upper row (CAR T cells without CAR-engager; the text says little to no CD45+ cells persisted); Lymph node
[27] = molecular target: CAR that binds human BCMA (scFv derived from anti-human BCMA antibody clone MSK54, human 41BB and CD3zeta intracellular signaling domains), on human T cells; assay: flow cytometry, anti-CD45 (y) against AF647-tagged BCMA-CH3 (x); CAR only mouse, upper row (CAR T cells without CAR-engager; the text says little to no CD45+ cells persisted); Blood
[28] = molecular target: CAR that binds human BCMA (scFv derived from anti-human BCMA antibody clone MSK54, human 41BB and CD3zeta intracellular signaling domains), on human T cells; assay: flow cytometry, dose-dependent staining of BCMA CAR T cells, secondary Alexa647-labeled anti-FLAG antibody, y-axis %Binding
[29] = molecular target: CAR that binds human BCMA (scFv derived from anti-human BCMA antibody clone MSK54, human 41BB and CD3zeta intracellular signaling domains), on human T cells; assay: flow cytometry, anti-CD45 (y) against AF647-tagged BCMA-CH3 (x); CAR + Treatment mouse (BCMA CAR T cells and BCMA-muIL2); Lymph node
[30] = molecular target: CAR that binds human BCMA (scFv derived from anti-human BCMA antibody clone MSK54, human 41BB and CD3zeta intracellular signaling domains), on human T cells; assay: flow cytometry, anti-CD45 (y) against AF647-tagged BCMA-CH3 (x); CAR only mouse, lower row (CAR T cells without CAR-engager; the text says little to no CD45+ cells persisted); Lymph node

UniProt P01589, sequence (P01589 22-272, chain 1 of 3): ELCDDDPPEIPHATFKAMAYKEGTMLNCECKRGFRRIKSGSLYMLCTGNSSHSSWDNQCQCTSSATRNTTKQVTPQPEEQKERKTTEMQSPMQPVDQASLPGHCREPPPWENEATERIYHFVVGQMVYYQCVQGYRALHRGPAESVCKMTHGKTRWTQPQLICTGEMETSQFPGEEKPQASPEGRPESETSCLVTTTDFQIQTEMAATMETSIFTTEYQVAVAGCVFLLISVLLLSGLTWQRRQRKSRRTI
UniProt P01589, sequence (P14784 27-551, chain 2 of 3, further chain): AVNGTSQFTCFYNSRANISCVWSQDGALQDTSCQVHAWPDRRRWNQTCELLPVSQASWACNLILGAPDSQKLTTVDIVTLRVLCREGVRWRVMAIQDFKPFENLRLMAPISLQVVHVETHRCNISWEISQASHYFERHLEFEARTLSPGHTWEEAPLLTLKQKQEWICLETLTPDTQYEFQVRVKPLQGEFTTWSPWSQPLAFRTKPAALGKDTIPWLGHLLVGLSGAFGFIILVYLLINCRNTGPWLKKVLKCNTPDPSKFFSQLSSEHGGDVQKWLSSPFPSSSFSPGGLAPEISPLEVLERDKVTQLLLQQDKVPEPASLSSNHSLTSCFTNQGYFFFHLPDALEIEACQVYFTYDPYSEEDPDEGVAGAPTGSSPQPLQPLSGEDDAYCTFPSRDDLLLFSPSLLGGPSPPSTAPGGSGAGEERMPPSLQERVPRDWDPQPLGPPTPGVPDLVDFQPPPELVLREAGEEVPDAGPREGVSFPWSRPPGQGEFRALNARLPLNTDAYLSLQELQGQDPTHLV
UniProt P01589, sequence (P31785 23-369, chain 3 of 3, further chain): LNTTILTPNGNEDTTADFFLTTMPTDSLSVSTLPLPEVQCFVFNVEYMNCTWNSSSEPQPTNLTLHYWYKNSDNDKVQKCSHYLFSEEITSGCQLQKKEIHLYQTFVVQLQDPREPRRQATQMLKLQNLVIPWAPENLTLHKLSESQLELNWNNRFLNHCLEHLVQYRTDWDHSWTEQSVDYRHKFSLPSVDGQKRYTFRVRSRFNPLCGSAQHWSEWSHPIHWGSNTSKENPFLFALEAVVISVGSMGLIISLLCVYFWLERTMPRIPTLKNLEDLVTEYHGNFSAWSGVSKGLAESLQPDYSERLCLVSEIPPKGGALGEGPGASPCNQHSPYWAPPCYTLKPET

phosphorylation of STAT5 (pY694) in BCMA CAR T cells, EC50 [1]: 3.9 nM
Molecule: VHH-muIL2 (control construct with an irrelevant nanobody in place of the BCMA ectodomain in the CH3-muIL2 construct)

EC50 [2]: 0.59 nM
Molecule: CD19-muIL2 CAR-engager (from UniProt P15391 20-291)

EC50 [3]: 0.21 nM | sensitivity of STAT5 phosphorylation against VHH-muIL2 [4]: > 200 fold | phosphorylation of STAT5 (pY694) in BCMA CAR T cells, EC50 [1]: 0.014 nM
Molecule: BCMA-muIL2 CAR-engager (BCMA-CH3-muIL2-muIL2)

lowest threshold of induced expression of CD69 in CAR T cells [5]: 0.01 nM
B1: BCMA-CH3-Neo-2/15 CAR-engager (protein)
chain: MLQMAGQCSQNEYFDSLLHACIPCQLRCSSNTPPLTCQRYCNASVTNSVKGTNAEPKSPKSADKTHTAPQPREPQVYTLPPSRDELTKNQVSLTCLVKGFYPSDIAVEWESNGQPENNYKTTPPVLDSDGSFFLYSKLTVDKSRWQQGNVFSCSVMHEALHNHYTQKSLSLSPGKGSHMPKKKIQLHAEHALYDALMILNIVKTNSPPAEEKLEDYAFNFELILEEIARLFESGDQKDEAEKAKRMKEWMKRIKTTASEDEQEEMANAIITILQSWIFS

percent of cells in the upper right quadrant (CD45+ AF647+) [6]: 0.18% | percent of cells in the upper right quadrant (CD45+ AF647+) [7]: 47.4% | percent of cells in the upper right quadrant (CD45+ AF647+) [8]: 0.096% | percent of cells in the upper right quadrant (CD45+ AF647+) [9]: 0.032% | percent of cells in the upper right quadrant (CD45+ AF647+) [10]: 0.21% | percent of cells in the upper right quadrant (CD45+ AF647+) [11]: 0.054% | percent of cells in the upper right quadrant (CD45+ AF647+) [12]: 0.13% | percent of cells in the upper right quadrant (CD45+ AF647+) [13]: 0.058% | percent of cells in the upper right quadrant (CD45+ AF647+) [14]: 0.013% | percent of cells in the upper right quadrant (CD45+ AF647+) [15]: 1.38% | percent of cells in the upper right quadrant (CD45+ AF647+) [16]: 3.97% | percent of cells in the upper right quadrant (CD45+ AF647+) [17]: 0.02% | percent of cells in the upper right quadrant (CD45+ AF647+) [18]: 1.69% | percent of cells in the upper right quadrant (CD45+ AF647+) [19]: 0.00572% | percent of cells in the upper right quadrant (CD45+ AF647+) [20]: 0.69% | percent of cells in the upper right quadrant (CD45+ AF647+) [21]: 0.044% | percent of cells in the upper right quadrant (CD45+ AF647+) [22]: 2.69% | percent of cells in the upper right quadrant (CD45+ AF647+) [23]: 0.13% | percent of cells in the upper right quadrant (CD45+ AF647+) [24]: 0.75% | percent of cells in the upper right quadrant (CD45+ AF647+) [25]: 1.01% | percent of cells in the upper right quadrant (CD45+ AF647+) [26]: 1.08% | percent of cells in the upper right quadrant (CD45+ AF647+) [27]: 0.2% | EC50 (read off the curve) [28]: 0.2 nM | percent of cells in the upper right quadrant (CD45+ AF647+) [29]: 12.2% | percent of cells in the upper right quadrant (CD45+ AF647+) [30]: 5.26%
B2: BCMA-CH3 (dimeric BCMA lacking the muIL2) (protein)
chain: MLQMAGQCSQNEYFDSLLHACIPCQLRCSSNTPPLTCQRYCNASVTNSVKGTNAEPKSPKSADKTHTAPQPREPQVYTLPPSRDELTKNQVSLTCLVKGFYPSDIAVEWESNGQPENNYKTTPPVLDSDGSFFLYSKLTVDKSRWQQGNVFSCSVMHEALHNHYTQKSLSLSPGK

From patent US20260226184A1
